Patent publication US20250002610A1 (Genmab, published 2025)
Where a chain is given by its changes, count along the chain named.

T1: mouse FAPα on Expi293F cells (mouse (Mus musculus), UniProt P97321 1-761)
T1 sequence: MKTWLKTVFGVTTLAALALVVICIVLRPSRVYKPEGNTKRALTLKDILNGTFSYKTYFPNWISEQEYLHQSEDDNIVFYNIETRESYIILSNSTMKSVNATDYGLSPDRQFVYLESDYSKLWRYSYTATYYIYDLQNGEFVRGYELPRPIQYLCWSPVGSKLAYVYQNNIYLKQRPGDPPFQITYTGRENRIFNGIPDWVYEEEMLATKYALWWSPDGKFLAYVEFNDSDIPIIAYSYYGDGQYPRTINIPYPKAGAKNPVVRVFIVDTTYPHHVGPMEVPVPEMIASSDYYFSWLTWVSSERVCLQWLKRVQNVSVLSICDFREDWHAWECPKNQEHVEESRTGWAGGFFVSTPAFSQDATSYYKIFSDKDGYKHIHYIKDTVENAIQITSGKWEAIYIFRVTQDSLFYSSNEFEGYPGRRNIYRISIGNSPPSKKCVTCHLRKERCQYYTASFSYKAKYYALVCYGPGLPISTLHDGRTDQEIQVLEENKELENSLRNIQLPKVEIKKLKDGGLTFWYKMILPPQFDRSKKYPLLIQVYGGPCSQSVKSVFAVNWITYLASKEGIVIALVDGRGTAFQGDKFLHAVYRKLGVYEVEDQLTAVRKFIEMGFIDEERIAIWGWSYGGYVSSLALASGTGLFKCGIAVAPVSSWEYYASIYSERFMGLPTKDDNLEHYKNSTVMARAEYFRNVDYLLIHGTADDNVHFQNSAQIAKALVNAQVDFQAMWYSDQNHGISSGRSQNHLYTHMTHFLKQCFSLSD

T2: human FAPα (Fibroblast activation protein alpha), cell surface expressed (human, UniProt Q12884 1-760)
T2 construct: Endogenous on human lung fibroblasts and CAFs
T2 sequence: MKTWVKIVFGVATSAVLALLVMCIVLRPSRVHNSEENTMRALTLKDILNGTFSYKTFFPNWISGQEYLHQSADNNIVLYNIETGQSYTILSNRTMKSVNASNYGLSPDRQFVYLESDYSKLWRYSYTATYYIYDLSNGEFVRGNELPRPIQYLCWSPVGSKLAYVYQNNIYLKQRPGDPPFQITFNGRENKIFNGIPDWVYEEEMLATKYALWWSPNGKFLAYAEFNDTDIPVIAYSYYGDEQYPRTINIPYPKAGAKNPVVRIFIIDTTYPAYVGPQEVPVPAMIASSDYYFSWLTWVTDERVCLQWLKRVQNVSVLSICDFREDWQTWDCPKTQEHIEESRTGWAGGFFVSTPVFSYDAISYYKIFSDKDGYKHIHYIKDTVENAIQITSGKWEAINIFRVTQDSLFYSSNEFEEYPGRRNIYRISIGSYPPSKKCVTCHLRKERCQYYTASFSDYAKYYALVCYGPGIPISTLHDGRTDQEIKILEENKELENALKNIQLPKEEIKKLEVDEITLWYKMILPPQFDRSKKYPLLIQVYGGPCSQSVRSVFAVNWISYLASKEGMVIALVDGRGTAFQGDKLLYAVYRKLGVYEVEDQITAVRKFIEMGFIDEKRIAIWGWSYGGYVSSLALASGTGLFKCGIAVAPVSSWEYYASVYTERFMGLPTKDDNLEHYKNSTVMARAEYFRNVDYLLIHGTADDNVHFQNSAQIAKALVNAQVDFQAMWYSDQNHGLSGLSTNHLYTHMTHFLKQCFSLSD

T3: human DR4 (Death Receptor 4), cell surface expressed on human tumor cell lines (human, UniProt O00220 24-468)
T3 construct: also called TNFRSF10A; TRAIL-R1
T3 sequence: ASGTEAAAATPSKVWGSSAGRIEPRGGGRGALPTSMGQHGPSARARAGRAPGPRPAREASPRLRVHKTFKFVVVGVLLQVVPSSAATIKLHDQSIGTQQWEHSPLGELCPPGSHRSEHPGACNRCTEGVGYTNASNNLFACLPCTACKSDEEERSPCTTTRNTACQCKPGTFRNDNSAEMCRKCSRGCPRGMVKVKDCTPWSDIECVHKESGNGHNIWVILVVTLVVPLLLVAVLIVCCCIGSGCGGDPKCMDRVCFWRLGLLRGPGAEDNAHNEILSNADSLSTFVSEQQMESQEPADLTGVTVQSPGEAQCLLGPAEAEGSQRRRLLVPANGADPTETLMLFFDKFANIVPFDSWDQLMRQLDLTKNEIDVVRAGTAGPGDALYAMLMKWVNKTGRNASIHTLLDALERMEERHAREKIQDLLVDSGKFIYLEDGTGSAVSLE

B1: BisG1-FAPα-FEAL/b12-FEAR (bispecific antibody, human IgG1, kappa)
heavy 1: EVQLLESGGGLVQPGGSPRLSCEASGFTFSSYALSWVRQAPGKGLEWVSAISGSGGGRYYADSVKGRFTISRDNSKNTLFLQMNSLRAEDTAVYYCAKEGYSSSGTYWDHWGQGTLVTVSSASTKGPSVFPLAPSSKSTSGGTAALGCLVKDYFPEPVTVSWNSGALTSGVHTFPAVLQSSGLYSLSSVVTVPSSSLGTQTYICNVNHKPSNTKVDKRVEPKSCDKTHTCPPCPAPEFEGGPSVFLFPPKPKDTLMISRTPEVTCVVVAVSHEDPEVKFNWYVDGVEVHNAKTKPREEQYNSTYRVVSVLTVLHQDWLNGKEYKCKVSNKALPAPIEKTISKAKGQPREPQVYTLPPSREEMTKNQVSLTCLVKGFYPSDIAVEWESNGQPENNYKTTPPVLDSDGSFLLYSKLTVDKSRWQQGNVFSCSVMHEALHNHYTQKSLSLSPG
light 1: AIQMTQSPSSVSASVGDRVTITCRASQGVSSWLAWYQQKPGRAPKLLIYVASTLQSGVPSRFSGSGSGTDFTLTINSLQPEDFATYYCQQANSFPPTFGQGTRLEMKRTVAAPSVFIFPPSDEQLKSGTASVVCLLNNFYPREAKVQWKVDNALQSGNSQESVTEQDSKDSTYSLSSTLTLSKADYEKHKVYACEVTHQGLSSPVTKSFNRGEC
heavy 2: QVQLVQSGAEVKKPGASVKVSCQASGYRFSNFVIHWVRQAPGQRFEWMGWINPYNGNKEFSAKFQDRVTFTADTSANTAYMELRSLRSADTAVYYCARVGPYSWDDSPQDNYYMDVWGKGTTVIVSSASTKGPSVFPLAPSSKSTSGGTAALGCLVKDYFPEPVTVSWNSGALTSGVHTFPAVLQSSGLYSLSSVVTVPSSSLGTQTYICNVNHKPSNTKVDKRVEPKSCDKTHTCPPCPAPEFEGGPSVFLFPPKPKDTLMISRTPEVTCVVVAVSHEDPEVKFNWYVDGVEVHNAKTKPREEQYNSTYRVVSVLTVLHQDWLNGKEYKCKVSNKALPAPIEKTISKAKGQPREPQVYTLPPSREEMTKNQVSLTCLVKGFYPSDIAVEWESNGQPENNYKTTPPVLDSDGSFFLYSRLTVDKSRWQQGNVFSCSVMHEALHNHYTQKSLSLSPG
light 2: EIVLTQSPGTLSLSPGERATFSCRSSHSIRSRRVAWYQHKPGQAPRLVIHGVSNRASGISDRFSGSGSGTDFTLTITRVEPEDFALYYCQVYGASSYTFGQGTKLERKRTVAAPSVFIFPPSDEQLKSGTASVVCLLNNFYPREAKVQWKVDNALQSGNSQESVTEQDSKDSTYSLSSTLTLSKADYEKHKVYACEVTHQGLSSPVTKSFNRGEC
notes: Fab-arm exchange of IgG1-FAPα-FEAL and IgG1-b12-FEAR
B2: IgG1-FAPα-FERL (antibody)
heavy: B1 heavy 1 with G240R, A269D
light: B1 light 1
notes: Bivalent monoclonal IgG1 kappa
B3: BisG1-b12-FERL/DR4-FERR (bispecific antibody, human IgG1, kappa, lambda)
heavy 1: B1 heavy 2 with G246R, A275D, F415L, R419K
light 1: B1 light 2
heavy 2: QVQLQESGPGLVKPSGTLSLTCAVSGGSISSYSWWSWIRQPPGKGLEWIGELYHSGSTNYNPSLKSRVTISVDKSKNQFSLKLRSVTAADTAVYYCVRGVATIDYWGQGTLVTVSSASTKGPSVFPLAPSSKSTSGGTAALGCLVKDYFPEPVTVSWNSGALTSGVHTFPAVLQSSGLYSLSSVVTVPSSSLGTQTYICNVNHKPSNTKVDKRVEPKSCDKTHTCPPCPAPEFERGPSVFLFPPKPKDTLMISRTPEVTCVVVDVSHEDPEVKFNWYVDGVEVHNAKTKPREEQYNSTYRVVSVLTVLHQDWLNGKEYKCKVSNKALPAPIEKTISKAKGQPREPQVYTLPPSREEMTKNQVSLTCLVKGFYPSDIAVEWESNGQPENNYKTTPPVLDSDGSFFLYSRLTVDKSRWQQGNVFSCSVMHEALHNHYTQKSLSLSPG
light 2: QSALTQPPSASGSPGQSVTISCTGTSSDVGGYNFVSWYQQDPGKAPKLLIYEVTKRPSGVPDRFSGSKSGNTASLTVSGLQAEDEADYYCSSYAGSNNVMFGGGTKLTVLGQPKAAPSVTLFPPSSEELQANKATLVCLISDFYPGAVTVAWKADSSPVKAGVETTTPSKQSNNKYAASSYLSLTPEQWKSHRSYSCQVTHEGSTVEKTVAPTECS
notes: Fab-arm exchange of IgG1-b12-FERL and IgG1-DR4-FERR; also called bsIgG1-ctrl-FERLxDR4-FERR
B4: IgG1-DR4-FERR (antibody, V domains shown)
VH: QVQLQESGPGLVKPSGTLSLTCAVSGGSISSYSWWSWIRQPPGKGLEWIGELYHSGSTNYNPSLKSRVTISVDKSKNQFSLKLRSVTAADTAVYYCVRGVATIDYWGQGTLVTVSS
VL: QSALTQPPSASGSPGQSVTISCTGTSSDVGGYNFVSWYQQDPGKAPKLLIYEVTKRPSGVPDRFSGSKSGNTASLTVSGLQAEDEADYYCSSYAGSNNVMFGGGTKLTVLG
notes: Bivalent monoclonal IgG1 lambda

Assays:
[1] = molecular target: T1, mouse FAPα on Expi293F cells; assay: flow cytometry on Expi293F cells transiently expressing mouse FAPα, gMFI PE
Description: (§1) Binding of BisG1-FAPα-FERL/DR4-FERR, BisG1-FAPα-FEAL/b12-FEAR and IgG1-FAPα-FERL to FAPα of species commonly used for nonclinical toxicology studies was assessed by flow cytometry using Expi293F cells transiently expressing FAPα from different animal species. IgG1-b12 was included as negative control.
(§2) Expi293F cells expressing recombinant FAPα from various species (human, cynomolgus monkey, dog, pig, rat or mouse) were seeded (20,000 cells/well) in 96-Well round bottom plates (Greiner Bio-one, Cat #650101). Antibody dilutions were prepared using FACS buffer, consisting of PBS (Capricorn Scientific, Cat #PBS-10XA, diluted to 1×PBS in distilled water)+1% BSA (Roche, Cat #10735086001)+0.02% Sodium Azide (Bio-World, Cat #41920044-3). Plates were centrifuged, supernatant was removed, and cells were resuspended in 100 μL of antibody dilutions (concentration range 30-0.00017 μg/mL with three-fold serial dilutions using FACS buffer) of BisG1-FAPα-FERL/DR4-FERR, BisG1-FAPα-FEAL/b12-FEAR, IgG1-FAPα-FERL and IgG1-b12 and incubated for 30 min at 4° C. […] After 30 min incubation at 4° C., cells were washed with FACS buffer and resuspended in FACS buffer supplemented with TO-PRO-3 Iodide viability marker (Invitrogen, Cat #T3605, diluted 1:4,000). Antibody binding to viable cells (gMFI of PE on TO-PRO-3 negative cells) was analyzed by flow cytometry on a FACS Celesta and FACS_Diva software (first two experiments) or iQue® 3 and FlowJo software (last experiment). gMFI was determined and visualized using GraphPad Prism. Binding curves were analyzed using nonlinear regression analysis. The concentration (pg/mL) at which 50% of the maximal effect was observed (EC₅₀) was derived from the fitted curves.

[2] = molecular target: T2, human FAPα (Fibroblast activation …); assay: flow cytometry, Expi293F cells expressing human FAPα, n = 1
Description: as §1, §2

[3] = molecular target: T3, human DR4 (Death Receptor 4), cell …; assay: flow cytometry, HCT-15 cells, n = 3
[4] = molecular target: T3, human DR4 (Death Receptor 4), cell …; assay: flow cytometry, A549 cells, n = 1

Row | Binder | binding result [1] | EC50 [2] [µg/mL] | EC50 (read off the curve) [1] [µg/mL] | EC50 [3] [µg/mL] | EC50 [4] [µg/mL]
1 | B1 | binds | 0.14 | – | – | –
2 | B2 | – | 0.11 | ~0.1 | – | –
3 | B3 | – | – | – | 0.53 | 0.89
4 | B4 | – | – | – | 0.15 | 0.51
